Results published in publication PMC6736635 (Nature structural & molecular biology, 2019).

Target: EZH2 (human, wild type, subunit of reconstituted PRC2 complexes) (human, UniProt Q15910-2 1-751)
Test: SEC

binding result: binds
B1: EED (human, wild type, subunit of reconstituted PRC2 complexes) (natural protein)
chain: not shown
